Publication PMC3443289

Target: HIV-1_(JR-FL) Env(−)ΔCT glycoprotein (uncleaved, cytoplasmic tail-truncated envelope glycoprotein precursor) (HIV-1 (isolate JR-FL))
Experiment: cryo-EM structure

Work on “HIV-1_(JR-FL) Env(−)ΔCT glycoprotein (uncleaved, cytoplasmic tail-truncated envelope glycoprotein precursor) (natural protein)” yielded a stoichiometry N of 3.
